Laboratory results taken from PMC3049778.

Target: GST-H486R optineurin (human) (UniProt Q96CV9)
Test: pull-down; GST-optineurin or GST-H486R on glutathione agarose beads incubated 6-8 hours with lysates of HeLa cells transfected with HA-CYLD; anti-HA immunoblot

UniProt Q96CV9, sequence (Q96CV9 whole entry H486R): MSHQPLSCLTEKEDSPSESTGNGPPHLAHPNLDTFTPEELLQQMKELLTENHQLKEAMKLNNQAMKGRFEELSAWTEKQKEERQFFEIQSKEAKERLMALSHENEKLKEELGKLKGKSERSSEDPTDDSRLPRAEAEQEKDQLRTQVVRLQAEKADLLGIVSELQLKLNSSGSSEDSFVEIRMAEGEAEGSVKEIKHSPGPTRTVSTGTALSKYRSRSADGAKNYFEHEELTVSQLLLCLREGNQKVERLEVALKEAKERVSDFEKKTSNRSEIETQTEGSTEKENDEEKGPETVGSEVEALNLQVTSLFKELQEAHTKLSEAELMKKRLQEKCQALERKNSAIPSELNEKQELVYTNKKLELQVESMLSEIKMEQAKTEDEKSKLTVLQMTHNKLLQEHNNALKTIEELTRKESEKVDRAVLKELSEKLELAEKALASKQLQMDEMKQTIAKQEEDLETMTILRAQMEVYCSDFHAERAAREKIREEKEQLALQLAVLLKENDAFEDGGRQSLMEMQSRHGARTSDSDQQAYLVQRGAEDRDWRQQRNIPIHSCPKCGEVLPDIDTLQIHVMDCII

fold less binding than wild type optineurin: 5 fold
Substance: HA-tagged CYLD (CYLD cDNA obtained in the yeast two-hybrid screen, in pCDNA3.1-HA) (from UniProt Q9NQC7 403-956) (domain or fragment)
